Data on 1 molecule can be found in patent WO2009147196A1 (dated 2009).

The target in this assay is Rev of the HIV-1 NL4.3 molecular clone (HIV-1). The experiment in a line: cell-based or functional assay.

B1: Nb_190 expressed intracellularly (pcDNA3.1-Nb_190; HIV-1 NL4.3-Nb_190) (VHH)
VHH: QVQLQESGGGLVQAGGSLRLSCAASGSIFSINTMGWYRQAPGKQRELVAFATSGGSTNYPDSVKGRFTISRDNVKNTVYLQMNSLKPEDTAVYYCNIDGFLGSLYKDYWSQGTQVTVSS
B1: the “virus production (p24) from the HIV-1 NL4.3-Nb_190 clone in HEK 293T cells” value came out at 300 fold reduction.
